Results: US20250122303A1 (HUMMINGBIRD BIOSCIENCE PTE, published 2025)
Like-named read-outs stand apart in the source and are kept apart here. Blank lines part the entries; values can stand above or below the binder they belong to.

Experiments:
rat HER3 = target: T1, rat HER3 (rat, UniProt Q62799 20-641, limits assumed); assay: ELISA, plate coated with 0.1 ug/ml rat HER3, antibody titrated, absorbance 450 nm
T1 construct: also called rat homologue of HER3 (Sino Biological Inc.); R. norvegicus HER3
T1 sequence (Q62799 20-641 limits assumed): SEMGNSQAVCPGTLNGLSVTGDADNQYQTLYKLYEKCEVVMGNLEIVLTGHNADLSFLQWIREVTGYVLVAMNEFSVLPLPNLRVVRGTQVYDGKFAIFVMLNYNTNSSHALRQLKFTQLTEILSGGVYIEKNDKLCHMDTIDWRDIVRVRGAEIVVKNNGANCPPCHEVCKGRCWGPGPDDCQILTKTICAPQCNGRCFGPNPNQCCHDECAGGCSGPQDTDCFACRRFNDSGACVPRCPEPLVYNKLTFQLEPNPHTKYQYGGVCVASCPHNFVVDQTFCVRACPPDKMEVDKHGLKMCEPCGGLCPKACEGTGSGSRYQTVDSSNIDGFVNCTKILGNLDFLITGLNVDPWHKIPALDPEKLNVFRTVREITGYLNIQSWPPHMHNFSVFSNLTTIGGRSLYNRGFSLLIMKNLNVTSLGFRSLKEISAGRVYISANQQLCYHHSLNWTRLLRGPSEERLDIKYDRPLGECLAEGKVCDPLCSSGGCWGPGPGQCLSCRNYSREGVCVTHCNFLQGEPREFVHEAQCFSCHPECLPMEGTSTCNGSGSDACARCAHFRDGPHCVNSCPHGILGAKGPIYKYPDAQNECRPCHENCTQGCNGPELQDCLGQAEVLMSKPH
Experimental: (§1) ELISAs were used to determine the binding specificity of the antibodies. The antibodies were analysed for binding to human HER3 polypeptide, as well as respective mouse, rat and monkey homologues of HER3 (Sino Biological Inc., China). The antibodies were also analysed for their ability to bind to human EGFR and human HER2 (Sino Biological Inc., China).
(§2) ELISAs were carried out according to standard protocols. Briefly, 96-well plates (Nunc, Denmark) were coated with 0.1 μg/ml of target polypeptide in phosphate-buffered saline (PBS) for 16 h at 4° C. After blocking for 1 h with 1% BSA in Tris buffer saline (TBS) at room temperature, the anti-HER3 antibody was serially diluted with the highest concentration being 10 μg/ml, and added to the plate. Post 1 h incubation at room temperature, plates were washed three times with TBS containing 0.05% Tween 20 (TBS-T) and were then incubated with a HRP-conjugated […] antibody (Life Technologies, Inc., USA) for 1 h at room temperature. After washing, plates were developed with colorimetric detection substrate 3,3′,5,5′-tetramethylbenzidine (Turbo-TMB; Pierce, USA) for 10 min. The reaction was stopped with 2M H₂SO₄, and OD was measured at 450 nm.

human HER3 polypeptide [1] = target: T2, human HER3 polypeptide (human, UniProt P21860 20-643); assay: ELISA, plate coated with 0.1 ug/ml human HER3, antibody titrated, absorbance 450 nm
T2 construct: Recombinant antigen of the ELISAs; also called human HER3 (Sino Biological Inc.); human antigen HER3
Experimental: as §1, §2

human HER3 polypeptide [2] = target: T2, human HER3 polypeptide; assay: as above; remark: listed apart in the source
Experimental: as §1, §2

mouse HER3 = target: T3, mouse HER3 (mouse, UniProt Q61526 20-641); assay: ELISA, plate coated with 0.1 ug/ml mouse HER3, antibody titrated, absorbance 450 nm
T3 construct: also called mouse homologue of HER3 (Sino Biological Inc.); M. musculus HER3
T3 sequence (Q61526 20-641 limits assumed): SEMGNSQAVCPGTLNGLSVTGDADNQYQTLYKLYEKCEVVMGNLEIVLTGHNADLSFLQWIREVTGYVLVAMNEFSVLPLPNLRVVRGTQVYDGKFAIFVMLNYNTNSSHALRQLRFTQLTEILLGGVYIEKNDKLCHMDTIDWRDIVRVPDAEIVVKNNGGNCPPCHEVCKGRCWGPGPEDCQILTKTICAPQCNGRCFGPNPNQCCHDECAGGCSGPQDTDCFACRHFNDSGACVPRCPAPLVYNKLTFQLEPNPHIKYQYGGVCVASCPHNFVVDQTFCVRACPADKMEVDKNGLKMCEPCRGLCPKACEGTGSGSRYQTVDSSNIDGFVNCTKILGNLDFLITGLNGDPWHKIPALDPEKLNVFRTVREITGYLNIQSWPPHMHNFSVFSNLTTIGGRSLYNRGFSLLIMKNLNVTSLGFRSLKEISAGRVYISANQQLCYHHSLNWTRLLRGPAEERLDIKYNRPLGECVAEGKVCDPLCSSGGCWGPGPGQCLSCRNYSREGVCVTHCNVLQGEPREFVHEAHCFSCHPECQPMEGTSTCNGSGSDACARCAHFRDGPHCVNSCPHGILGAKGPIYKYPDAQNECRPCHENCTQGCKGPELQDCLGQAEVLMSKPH
Experimental: as §1, §2

human EGFR = target: T4, human EGFR (human, UniProt P00533 25-645); assay: ELISA, plate coated with 0.1 ug/ml human EGFR, antibody titrated, absorbance 450 nm
T4 construct: also called human HER1 (EGFR) (Sino Biological Inc.)
Experimental: as §1, §2

human HER2 = target: T5, human HER2 (human, UniProt P04626 23-652); assay: ELISA, plate coated with 0.1 ug/ml human HER2, antibody titrated, absorbance 450 nm
T5 construct: also called human HER2 (Sino Biological Inc.)
Experimental: as §1, §2

cynomolgus macaque HER3 = target: T6, cynomolgus macaque HER3 (cynomolgus macaque, UniProt G7PIG5 20-643); assay: ELISA, plate coated with 0.1 ug/ml cynomolgus HER3, antibody titrated, absorbance 450 nm
T6 construct: also called monkey homologue of HER3 (Sino Biological Inc.); HER3 cyno
T6 sequence (G7PIG5 entry or part of it): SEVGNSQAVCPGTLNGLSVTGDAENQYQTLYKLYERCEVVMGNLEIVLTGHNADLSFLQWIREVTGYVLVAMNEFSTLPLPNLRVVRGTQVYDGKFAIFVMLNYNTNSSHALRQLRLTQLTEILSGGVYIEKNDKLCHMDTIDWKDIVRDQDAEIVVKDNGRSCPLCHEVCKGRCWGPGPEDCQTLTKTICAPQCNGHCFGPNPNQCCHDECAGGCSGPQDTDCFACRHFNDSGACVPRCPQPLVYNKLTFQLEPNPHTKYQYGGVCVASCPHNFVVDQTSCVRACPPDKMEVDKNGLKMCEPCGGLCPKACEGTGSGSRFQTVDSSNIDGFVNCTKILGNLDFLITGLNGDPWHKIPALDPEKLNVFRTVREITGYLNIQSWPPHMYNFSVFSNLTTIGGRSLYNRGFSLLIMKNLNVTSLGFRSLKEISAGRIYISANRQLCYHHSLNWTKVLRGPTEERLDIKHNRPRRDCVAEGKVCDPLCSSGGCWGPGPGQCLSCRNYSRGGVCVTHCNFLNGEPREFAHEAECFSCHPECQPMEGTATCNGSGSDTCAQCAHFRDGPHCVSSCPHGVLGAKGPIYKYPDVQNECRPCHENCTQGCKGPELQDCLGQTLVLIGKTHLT
Experimental: as §1, §2

[3] = target: T7, His-tagged FcγRIIIa (V158) (human, UniProt P08637 17-208); assay: Bio-Layer Interferometry; His-tagged FcγRIIIa (V158) on anti-Penta-HIS tips, antibody in solution
T7 construct: not shown: His tag
Experimental: (§3) All measurements were performed at 25° C. with agitation at 1000 rpm. […] Sensograms were referenced for buffer effects and then fitted using the Octet QK384 user software (Pall ForteBio, USA). Kinetic responses were subjected to a global fitting using a one site binding model to obtain values for association (Kₒₙ), dissociation (Koff) rate constants and the equilibrium dissociation constant (KD). Only curves that could be reliably fitted with the software (R²>0.90) were included in the analysis.
BLI was performed as described above.

His-tagged human HER3 [4] = target: T8, His-tagged human HER3 (human, UniProt P21860 20-643); assay: BLI (Octet QK384), antibody on anti-human IgG capture tips, His-tagged human HER3 in solution, global one-site fit
T8 construct: Antigen of the BLI experiments and of the HER2-Fc dimerisation ELISA; also called HER3 His; not shown: His tag
Experimental: as §3, with “The anti-HER3 antibody clones in IgG1 format were analysed for binding affinity to human HER3. Bio-Layer Interferometry (BLI) experiments were performed using the Octet QK384 system (ForteBio). anti-Human IgG Capture (AHC) Octet sensor tips (Pall ForteBio, USA) were used to anti-HER3 antibodies (25 nM). All” for “All”

[5] = target: T9, human HER3 expressed on cells (HEK293 HER3 O/E cells) (human, UniProt P21860 20-1342); assay: flow cytometry on HEK293T HER3 O/E cells, 10 ug antibody as printed, FITC-conjugated anti-Fc secondary
T9 construct: Also used here for HER3 on U2OS cells of the PathHunter kit and on cancer cell lines; also called HEK293 cells transfected with vector encoding human HER3; human HER3-expressing cells
Experimental: The cells were washed with buffer (PBS with 2 mM EDTA and 0.5% BSA) and resuspended in FITC-conjugated anti-FC antibody (Invitrogen, USA) at 10 μg/ml for 20 min at 4° C. Cells were washed again and resuspended in 200 μL of FACS flow buffer (PBS with 5 mM EDTA) for flow cytometric analysis using MACSQuant 10 (Miltenyi Biotec, Germany). Unstained WT and transfected HEK293 cells were included in the analysis as negative controls. After acquisition, all raw data were analyzed using Flowlogic software. Cells were gated using forward and side scatter profile percentage of positive cells was determined for native and overexpressing cell populations.

His-tagged human HER3 [6] = target: T8, His-tagged human HER3; assay: BLI (Octet QK384), antibody on anti-human IgG capture tips, His-tagged human HER3 35-278 nM, global 1:1 fit; kdis Error 1.56E-04
Experimental: as §3, with “The anti-HER3 antibody clones in IgG1 format were analysed for binding affinity to human HER3. Bio-Layer Interferometry (BLI) experiments were performed using the Octet QK384 system (ForteBio). anti-Human IgG Capture (AHC) Octet sensor tips (Pall ForteBio, USA) were used to anti-HER3 antibodies (25 nM). All” for “All”

[7] = target: T9, human HER3 expressed on cells (HEK293 …); assay: flow cytometry, HEK293 cells overexpressing human HER3, 20 ug/ml antibody, FITC anti-Fc secondary; same antibody on WT HEK293: 0.60
Experimental: (§4) The cells were washed thrice with FACS buffer (PBS with 5 mM EDTA and 0.5% BSA) and resuspended in FITC-conjugated anti-FC antibody (Invitrogen, USA) for 40 min at 2-8° C. Cells were washed again and resuspended in 200 μL of FACS flow buffer (PBS with 5 mM EDTA) for flow cytometric analysis using MACSQuant 10 (Miltenyi Biotec, Germany). After acquisition, all raw data were analyzed using Flowlogic software. Cells were gated using forward and side scatter profile percentage of positive cells was determined for native and overexpressing cell populations.

[8] = target: T9, human HER3 expressed on cells (HEK293 …); assay: as above; remark: listed apart in the source
Experimental: as §4

His-tagged human HER3 [9] = target: T8, His-tagged human HER3; assay: BLI (Octet QK384), antibody on anti-human IgG capture tips, His-tagged human HER3 in solution, global 1:1 fit, R^2 = 0.9898, kon Error 8.22E+03; Response 0.0794 / 0.1744 / 0.3278 / 0.5079 at 35 / 69 / 139 / 278 nM
Experimental: as §3, with “The anti-HER3 antibody clones in IgG1 format were analysed for binding affinity to human HER3. Bio-Layer Interferometry (BLI) experiments were performed using the Octet QK384 system (ForteBio). anti-Human IgG Capture (AHC) Octet sensor tips (Pall ForteBio, USA) were used to anti-HER3 antibodies (25 nM). All” for “All”

human HER3 polypeptide [10] = target: T2, human HER3 polypeptide; assay: ELISA, plate coated with human HER3, antibody titrated, absorbance 450 nm, x axis Log([Ab]) (ug/ml)
His-tagged human HER3 [11] = target: T8, His-tagged human HER3; assay: BLI (Octet QK384), antibody on anti-human IgG capture tips, His-tagged human HER3 35-278 nM, global 1:1 fit
Experimental: as §3, with “The anti-HER3 antibody clones in IgG1 format were analysed for binding affinity to human HER3. Bio-Layer Interferometry (BLI) experiments were performed using the Octet QK384 system (ForteBio). anti-Human IgG Capture (AHC) Octet sensor tips (Pall ForteBio, USA) were used to anti-HER3 antibodies (25 nM). All” for “All”

[12] = target: T9, human HER3 expressed on cells (HEK293 …); assay: flow cytometry, HEK293 cells overexpressing human HER3 (293_OE HER3), 20 ug/ml antibody, FITC anti-Fc secondary; same antibody on 293 cells: 2.48; unstained 293: 0.14
Experimental: as §4

His-tagged human HER3 [13] = target: T8, His-tagged human HER3; assay: BLI (Octet QK384), antibody on anti-human IgG capture tips, His-tagged human HER3 in solution, global 1:1 fit, R^2 = 0.9891, kon Error 1.04E+04; Response 0.1355 / 0.3221 / 0.4533 / 0.5944 at 35 / 39 (as printed in the table; graph label 69) / 139 / 278 nM
Experimental: as §3, with “The anti-HER3 antibody clones in IgG1 format were analysed for binding affinity to human HER3. Bio-Layer Interferometry (BLI) experiments were performed using the Octet QK384 system (ForteBio). anti-Human IgG Capture (AHC) Octet sensor tips (Pall ForteBio, USA) were used to anti-HER3 antibodies (25 nM). All” for “All”

His-tagged human HER3 [14] = target: T8, His-tagged human HER3; assay: BLI (Octet QK384), antibody on anti-human IgG capture tips, His-tagged human HER3 35-278 nM, global 1:1 fit; kdis Error 1.11E-04
Experimental: as §3, with “The anti-HER3 antibody clones in IgG1 format were analysed for binding affinity to human HER3. Bio-Layer Interferometry (BLI) experiments were performed using the Octet QK384 system (ForteBio). anti-Human IgG Capture (AHC) Octet sensor tips (Pall ForteBio, USA) were used to anti-HER3 antibodies (25 nM). All” for “All”

[15] = target: T9, human HER3 expressed on cells (HEK293 …); assay: flow cytometry, HEK293 cells overexpressing human HER3 (293_OE HER3), 20 ug/ml antibody, FITC anti-Fc secondary; same antibody on 293 cells: 5.38; unstained 293: 0.14
Experimental: as §4

His-tagged human HER3 [16] = target: T8, His-tagged human HER3; assay: BLI (Octet QK384), antibody on anti-human IgG capture tips, His-tagged human HER3 in solution, global 1:1 fit, R^2 = 0.9917, kon Error 9.57E+03; Response 0.1296 / 0.2851 / 0.4098 / 0.5575 at 35 / 69 / 139 / 278 nM
Experimental: as §3, with “The anti-HER3 antibody clones in IgG1 format were analysed for binding affinity to human HER3. Bio-Layer Interferometry (BLI) experiments were performed using the Octet QK384 system (ForteBio). anti-Human IgG Capture (AHC) Octet sensor tips (Pall ForteBio, USA) were used to anti-HER3 antibodies (25 nM). All” for “All”

- EC50 (rat HER3): 0.372 nM
- EC50 (human HER3 polypeptide [1]): 0.00588 nM
- EC50 (human HER3 polypeptide [2]): 0.00588 nM
- EC50 (mouse HER3): 0.137 nM
- binding result (human EGFR): no binding (tested: log(M) about -6.7)
- binding result (human HER2): no binding (tested: log(M) about -6.7)
- EC50 (cynomolgus macaque HER3): 0.00368 nM
- Kd [3]: 298 nM
- koff [3]: 0.04 s⁻¹
- kon [3]: 130000 M⁻¹ s⁻¹
- Kd (His-tagged human HER3 [4]): 9.58 nM
- % Parent (HER3 positive) [5]: 65.7%
- koff (His-tagged human HER3 [6]): 0.00173 s⁻¹
- % Parent (HER3 positive) [7]: 99%
- % Parent (HER3 positive) [8]: 99%
- kon (His-tagged human HER3 [9]): 180000 M⁻¹ s⁻¹
B1: anti-HER3 clone 10D1 IgG1 (antibody)
heavy: not shown
light: DIVMTQSQKFMSTSVGDRVSVTCKASQIVGSNVAWYQQKPGQSPKPLIYSASYRYSGVPDRFTASGSGTDFTLTITNVQSEDLAEYFCQQYSSHPLTFGAGTKLELKRTVAAPSVFIFPPSDEQLKSGTASVVCLLNNFYPREAKVQWKVDNALQSGNSQESVTEQDSKDSTYSLSSTLTLSKADYEKHKVYACEVTHQGLSSPVTKSFNRGEC
notes: Mouse variable regions on human IgG1/kappa constant regions (human-mouse chimeric antibody); also called 10D1P; 10D1 (parental)

- Kd (His-tagged human HER3 [4]): < 0.001 nM
- EC50 (read off the curve) (human HER3 polypeptide [10]): ~7 ng/mL
- koff (His-tagged human HER3 [11]): < 1e-07 s⁻¹
- % Parent (HER3 positive) [12]: 41.8%
- kon (His-tagged human HER3 [13]): 252000 M⁻¹ s⁻¹
B2: anti-HER3 clone 10D1_c90 IgG1 (antibody, V domains shown)
VH: QVQLQESGPGLVKPSQTLFLTCTVSGYSITSGYSWHWIRQHPGKGLEWIGSIRYSGGTDYNPSLKSLVTISVDTSKNQFSLKLSSVTAADTAVYYCARMTTAPWYPFDYWGQGTTVTVSS
VL: DIQMTQSPSSVSASVGDRVTFTCKASQIVGSNVAWYQQKPGKAPEPLIYSASYLYSSVPSRFSGSGSGTEFTMTISSLEPEDFATYYCQQYTTHPLTFGPGTKVEIKR
notes: Humanised 10D1 variant, IgG1/kappa

- Kd (His-tagged human HER3 [4]): 0.176 nM
- EC50 (read off the curve) (human HER3 polypeptide [10]): ~5 ng/mL
- koff (His-tagged human HER3 [14]): 4.73e-05 s⁻¹
- % Parent (HER3 positive) [15]: 48%
- kon (His-tagged human HER3 [16]): 269000 M⁻¹ s⁻¹
B3: anti-HER3 clone 10D1_c91 IgG1 (antibody, V domains shown)
VH: QVQLQESGPGLVKPSQTLSLTCTVSGYYITSGYSWHWIRQHPGKGLEWIGSIRYSGGTDYNPSLKSLATISADTSKNQFSLKLSSVTAADTAVYYCARMTTAPWYPFDYWGQGTAVTVSS
VL: DIQMTQSPSSVSASVGDRVTITCKASQIVGSNVAWYQQKPGKAPMPLIYSASYGYSGVPSRFSGSGSGTDFTLTISSLQPEDFATYYCQQYSSHPLTFGQGTKLEIKR
notes: as for B2
